This is an account of results in paper PMC2424174 (2008).

Where no end group is shown, it is not given here. Ahx = NCCCCCC(=O)O

Experiment [1] concerns the target Nucleolin (cell surface, HUVECs) (Homo sapiens, UniProt P19338). Put plainly: iodinated HB-19 cell binding displaced by unlabeled HB-19.
Experiment [2] addresses Nucleolin (cell surface, MDA-MB-231 cells) (Homo sapiens, UniProt P19338). The description is as above.

Sequence of Nucleolin (cell surface, MDA-MB-231 cells) (P19338 2-710): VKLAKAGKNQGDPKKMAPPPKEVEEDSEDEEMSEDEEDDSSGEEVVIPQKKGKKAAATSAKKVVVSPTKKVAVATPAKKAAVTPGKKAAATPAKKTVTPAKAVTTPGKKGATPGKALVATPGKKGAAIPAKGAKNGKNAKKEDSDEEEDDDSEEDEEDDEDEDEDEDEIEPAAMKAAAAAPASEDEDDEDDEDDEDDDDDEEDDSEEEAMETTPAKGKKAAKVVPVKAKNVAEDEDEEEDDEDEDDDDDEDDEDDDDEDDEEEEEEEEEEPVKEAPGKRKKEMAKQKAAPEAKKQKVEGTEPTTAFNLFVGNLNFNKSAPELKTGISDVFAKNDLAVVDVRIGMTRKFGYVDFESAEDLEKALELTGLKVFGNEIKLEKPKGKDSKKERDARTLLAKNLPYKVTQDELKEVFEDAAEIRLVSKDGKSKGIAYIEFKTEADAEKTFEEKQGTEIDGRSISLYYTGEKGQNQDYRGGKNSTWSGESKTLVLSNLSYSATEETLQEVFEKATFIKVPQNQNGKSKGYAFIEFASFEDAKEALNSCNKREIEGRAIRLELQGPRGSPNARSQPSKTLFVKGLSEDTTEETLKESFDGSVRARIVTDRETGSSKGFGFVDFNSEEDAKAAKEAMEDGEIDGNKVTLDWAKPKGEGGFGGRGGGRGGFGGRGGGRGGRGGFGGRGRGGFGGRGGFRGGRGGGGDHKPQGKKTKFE
Sequence of Nucleolin (cell surface, HUVECs) (P19338 2-710): as above

B1: HB-19 pseudopeptide (peptide)
chain: KKKGPKEK-{Ahx-NH2}
modifications: also: pentavalent Lys-psi(CH2N)-Pro-Arg on template, attachment places not given here, reduced psi(CH2N) bond Lys-Pro
As a reminder, the Kd is the constant that tells how readily two partners part at equilibrium. Low readings indicate a tighter complex, high ones a looser complex. On to B1, for which the equilibrium dissociation constant (Kd) in experiment [1] is 825 nM; in experiment [2], 312 nM.
